This assay deals with low density lipoprotein (LDL) from human plasma (human) (UniProt P04114). The experiment in a line: agarose gel, stained bands excised and counted with 125I-labeled peptide.

B1: Ac-hE18A-NH2 (end protected analog of hApoE[141-150]-18A) (peptide)
peptide: Ac-LRKLRKRLLRDWLKAFYDKVAEKLKEAF-NH2
modifications: also: 125I-labelled where stoichiometry was determined
B1 came in with a stoichiometry (molecules of peptide per LDL) (molecules of peptide per LDL) of 30.

These data come from US20020128175A1.
